Results on five molecules are retold here after US20180016349A1 (Takeda / Millennium, published 2018).

One assay addresses T1, cynomolgus CD38 (cynomolgus (Macaca fascicularis), UniProt Q5VAN0 1-301, limits assumed).
T1 construct: also called cyCD38; cyno CD38
As to the kind of experiment: not described at this place (FACS screen on CHO cells expressing cynomolgus CD38 is described in Example 3).

Assay [1] concerns the target T2, human CD38 on cells (MOLP-8, RPMI-8226, Daudi cell lines, patient cells and tissues) (human, UniProt P28907 1-300). As to the kind of experiment: cell-based or functional assay.
The target of assay [2] is T2, human CD38 on cells (MOLP-8, RPMI-8226, …). As to the kind of experiment: flow cytometry titration on MOLP-8 cells, 4 C, nonlinear fit; 95% confidence interval in parentheses. In general terms: A flow cytometer gives signals particle by particle.
The target in assay [3] is T3, soluble human CD38 ectodomain (ECD), R&D Systems Cat #2404-AC (human, UniProt P28907 43-300).
T3 construct: Bought ectodomain; also called HuCD38; human recombinant CD38
As to the kind of experiment: SPR Biacore A100, 22 C, mAb captured by anti-human IgG, soluble human CD38 ECD as analyte, 1:1 fit.

Assay [4] concerns the target T2, human CD38 on cells (MOLP-8, RPMI-8226, …). Description: flow cytometry (FACS KD) on RPMI-8226 cells.

T1 sequence (Q5VAN0 whole entry): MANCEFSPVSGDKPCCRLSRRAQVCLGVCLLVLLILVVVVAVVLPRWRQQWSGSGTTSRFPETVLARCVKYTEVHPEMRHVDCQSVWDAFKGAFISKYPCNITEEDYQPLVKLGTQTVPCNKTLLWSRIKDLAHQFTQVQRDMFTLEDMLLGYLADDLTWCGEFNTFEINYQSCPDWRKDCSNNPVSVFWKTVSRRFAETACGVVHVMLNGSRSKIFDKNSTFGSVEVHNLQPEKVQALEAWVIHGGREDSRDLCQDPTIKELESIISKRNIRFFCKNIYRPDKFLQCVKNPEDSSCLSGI

B1: Ab19 (antibody, human IgG1, lambda, V domains shown)
VH: EVQLLESGGGLVQPGGSLRLSCAASGFTFNNYDMTWVRQAPGKGLEWVAVISYDGSDKDYADSVKGRFTISRDNSKNTLYLQMNSLRAEDTAVYYCARVYYYGFSGPSMDVWGQGTLVTVSS
VL: QSVLTQPPSASGTPGQRVTISCSGSNSNIGSNTVNWYQQLPGTAPKLLIYSDSNRPSGVPDRFSGSKSGTSASLAISGLRSEDEADYYCQSYDSSLSGSRVFGGGTKLTVLG
As a reminder, the Kd is the free concentration of one partner at which half of the binding sites on the other are occupied at equilibrium, for simple one-to-one binding. With B1, the binding result with cynomolgus CD38 was “binds”. In assay [1], the “ADCC EC50 nM (DAUDI)” value was 0.08 nM, the “ADCC EC50 nM (MOLP-8)” value is 0.038 nM, the “ADCC EC50 nM (RPMI-8226)” value came out at 0.46 nM and the “Apoptosis EC50 nM (DAUDI)” value was 0.032 nM. Besides, in assay [1], the “CDC EC50 nM (MOLP-8)” value is 0.98 nM. The dissociation constant (Kd) in assay [2] was 0.4 nM. In assay [3], this molecule showed a Kd of 5.3 nM.

B2: Ab79 (antibody, human IgG1, lambda, V domains shown)
VH: EVQLLESGGGLVQPGGSLRLSCAASGFTFDDYGMSWVRQAPGKGLEWVSDISWNGGKTHYVDSVKGQFTISRDNSKNTLYLQMNSLRAEDTAVYYCARGSLFHDSSGFYFGHWGQGTLVTVSS
VL: QSVLTQPPSASGTPGQRVTISCSGSSSNIGDNYVSWYQQLPGTAPKLLIYRDSQRPSGVPDRFSGSKSGTSASLAISGLRSEDEADYYCQSYDSSLSGSVFGGGTKLTVLG
notes: also called TSF79
As for B2, in the assay with cynomolgus CD38, the binding result is reported as “binds”. Also, in assay [1], the “ADCC EC50 nM (DAUDI)” value is 0.03 nM, the “ADCC EC50 nM (MOLP-8)” value came out at 0.047 nM, the “ADCC EC50 nM (RPMI-8226)” value worked out at 0.46 nM and the “Apoptosis EC50 nM (DAUDI)” value came out at 0.048 nM. Further, the “CDC EC50 nM (MOLP-8)” value in assay [1] is 1.1 nM. Further, the Kd in assay [2] is 1.2 nM. In addition, the Kd in assay [4] came to 0.508 nM. This molecule also returned a Kd in assay [3] of 5.5 nM.

B3: Ab72 (antibody, human IgG1, lambda, V domains shown)
VH: EVQLLESGGGLVQPGGSLRLSCAASGFTFSSYGMNWVRQAPGKGLEWVSGISGSGGSTYYADSVKGRFTISRDNSKNTLYLQMNSLRAEDTAVYYCAKDSNYDFWSGYYYGMDVWGQGTLVTVSS
VL: QSVLTQPPSASGTPGQRVTISCSGSSSNIGSKTVSWYQQLPGTAPKLLIYDNNKRPSGVPDRFSGSKSGTSASLAISGLRSEDEADYYCSSYAARSTNIIFGGGTKLTVLG
In general, koff refers to the rate constant with which the complex falls apart. In general, kon refers to a measure of how fast the partners come together. Read a low kon as slow association. Take B3: in assay [1], the “ADCC EC50 nM (DAUDI)” value was found to be 0.14 nM, the “ADCC EC50 nM (MOLP-8)” value was determined as 0.193 nM, the “ADCC EC50 nM (RPMI-8226)” value worked out at 2.35 nM and the “Apoptosis EC50 nM (DAUDI)” value was found to be 0.35 nM. The “CDC EC50 nM (MOLP-8)” value in assay [1] amounted to 0.66 nM. Moreover, the Kd in assay [2] was 0.6 nM. In assay [3], this molecule had a Kd of 126 nM, an off-rate (koff) of 0.00182 s⁻¹ and a kon of 14400 M⁻¹ s⁻¹.

B4: Ab110 (antibody, human IgG1, lambda, V domains shown)
VH: EVQLLESGGGLVQPGGSLRLSCAASGFTFSSYGMHWVRQAPGKGLEWVSIIYSGGSTYYADSVKGRFTISRDNSKNTLYLQMNSLRAEDTAVYYCARRATWGGATHDYWGQGTLVTVSS
VL: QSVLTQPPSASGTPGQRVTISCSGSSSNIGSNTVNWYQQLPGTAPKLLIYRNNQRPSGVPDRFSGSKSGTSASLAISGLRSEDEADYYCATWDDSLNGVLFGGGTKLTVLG
On to B4, for which, in assay [1], the “ADCC EC50 nM (DAUDI)” value worked out at 0.24 nM, the “ADCC EC50 nM (MOLP-8)” value is 0.874 nM, the “ADCC EC50 nM (RPMI-8226)” value is 2.98 nM and the “Apoptosis EC50 nM (DAUDI)” value amounted to 0.4 nM. In addition, the “CDC EC50 nM (MOLP-8)” value in assay [1] was 1.99 nM. Further, the Kd in assay [2] was 1 nM. Moreover, in assay [3], the Kd turned out to be 1400 nM, the koff is 0.171 s⁻¹ and the kon came to 122000 M⁻¹ s⁻¹.

B5: Ab43 (antibody, human IgG1, lambda, V domains shown)
VH: EVQLLESGGGLVQPGGSLRLSCAASGFTFSSYGMHWVRQAPGKGLEWVSRINSDGSSTSYADSMKGQFTISRDNSKNTLYLQMNSLRAEDTAVYYCARGGYYYYAMDVWGQGTLVTVSS
VL: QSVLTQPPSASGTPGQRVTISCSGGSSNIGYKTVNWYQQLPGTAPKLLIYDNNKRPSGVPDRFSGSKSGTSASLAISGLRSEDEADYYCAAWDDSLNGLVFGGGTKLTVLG
For B5, in assay [1], the “ADCC EC50 nM (DAUDI)” value is 0.12 nM, the “ADCC EC50 nM (MOLP-8)” value was determined as 0.027 nM, the “ADCC EC50 nM (RPMI-8226)” value was 3.84 nM and the “Apoptosis EC50 nM (DAUDI)” value is 1.56 nM. Moreover, the “CDC EC50 nM (MOLP-8)” value in assay [1] was determined as 2.2 nM. The Kd in assay [2] is 1.1 nM. In assay [3], this molecule returned a Kd of 537 nM, a koff of 0.146 s⁻¹ and a kon of 272000 M⁻¹ s⁻¹.
